B1: Nibrin (Homo sapiens), O60934 (parent)
chain: MWKLLPAAGPAGGEPYRLLTGVEYVVGRKNCAILIENDQSISRNHAVLTANFSVTNLSQTDEIPVLTLKDNSKYGTFVNEEKMQNGFSRTLKSGDGITFGVFGSKFRIEYEPLVACSSCLDVSGKTALNQAILQLGGFTVNNWTEECTHLVMVSVKVTIKTICALICGRPIVKPEYFTEFLKAVESKKQPPQIESFYPPLDEPSIGSKNVDLSGRQERKQIFKGKTFIFLNAKQHKKLSSAVVFGGGEARLITEENEEEHNFFLAPGTCVVDTGITNSQTLIPDCQKKWIQSIMDMLQRQGLRPIPEAEIGLAVIFMTTKNYCDPQGHPSTGLKTTTPGPSLSQGVSVDEKLMPSAPVNTTTYVADTESEQADTWDLSERPKEIKVSKMEQKFRMLSQDAPTVKESCKTSSNNNSMVSNTLAKMRIPNYQLSPTKLPSINKSKDRASQQQQTNSIRNYFQPSTKKRERDEENQEMSSCKSARIETSCSLLEQTQPATPSLWKNKEQHLSENEPVDTNSDNNLFTDTDLKSIVKNSASKSHAAEKLRSNKKREMDDVAIEDEVLEQLFKDTKPELEIDVKVQKQEEDVNVRKRPRMDIETNDTFSDEAVPESSKISQENEIGKKRELKEDSLWSAKEISNNDKLQDDSEMLPKKLLLTEFRSLVIKNSTSRNPSGINDDYGQLKNFKKFKKVTYPGAGKLPHIIGGSDLIAHHARKNTELEEWLRQEMEVQNQHAKEESLADDLFRYNPYLKRRR

How the values were obtained:
Details in all cases: with mdc1_human MDC1, Q14676
Sequence of mdc1_human MDC1, Q14676 (Q14676 whole entry): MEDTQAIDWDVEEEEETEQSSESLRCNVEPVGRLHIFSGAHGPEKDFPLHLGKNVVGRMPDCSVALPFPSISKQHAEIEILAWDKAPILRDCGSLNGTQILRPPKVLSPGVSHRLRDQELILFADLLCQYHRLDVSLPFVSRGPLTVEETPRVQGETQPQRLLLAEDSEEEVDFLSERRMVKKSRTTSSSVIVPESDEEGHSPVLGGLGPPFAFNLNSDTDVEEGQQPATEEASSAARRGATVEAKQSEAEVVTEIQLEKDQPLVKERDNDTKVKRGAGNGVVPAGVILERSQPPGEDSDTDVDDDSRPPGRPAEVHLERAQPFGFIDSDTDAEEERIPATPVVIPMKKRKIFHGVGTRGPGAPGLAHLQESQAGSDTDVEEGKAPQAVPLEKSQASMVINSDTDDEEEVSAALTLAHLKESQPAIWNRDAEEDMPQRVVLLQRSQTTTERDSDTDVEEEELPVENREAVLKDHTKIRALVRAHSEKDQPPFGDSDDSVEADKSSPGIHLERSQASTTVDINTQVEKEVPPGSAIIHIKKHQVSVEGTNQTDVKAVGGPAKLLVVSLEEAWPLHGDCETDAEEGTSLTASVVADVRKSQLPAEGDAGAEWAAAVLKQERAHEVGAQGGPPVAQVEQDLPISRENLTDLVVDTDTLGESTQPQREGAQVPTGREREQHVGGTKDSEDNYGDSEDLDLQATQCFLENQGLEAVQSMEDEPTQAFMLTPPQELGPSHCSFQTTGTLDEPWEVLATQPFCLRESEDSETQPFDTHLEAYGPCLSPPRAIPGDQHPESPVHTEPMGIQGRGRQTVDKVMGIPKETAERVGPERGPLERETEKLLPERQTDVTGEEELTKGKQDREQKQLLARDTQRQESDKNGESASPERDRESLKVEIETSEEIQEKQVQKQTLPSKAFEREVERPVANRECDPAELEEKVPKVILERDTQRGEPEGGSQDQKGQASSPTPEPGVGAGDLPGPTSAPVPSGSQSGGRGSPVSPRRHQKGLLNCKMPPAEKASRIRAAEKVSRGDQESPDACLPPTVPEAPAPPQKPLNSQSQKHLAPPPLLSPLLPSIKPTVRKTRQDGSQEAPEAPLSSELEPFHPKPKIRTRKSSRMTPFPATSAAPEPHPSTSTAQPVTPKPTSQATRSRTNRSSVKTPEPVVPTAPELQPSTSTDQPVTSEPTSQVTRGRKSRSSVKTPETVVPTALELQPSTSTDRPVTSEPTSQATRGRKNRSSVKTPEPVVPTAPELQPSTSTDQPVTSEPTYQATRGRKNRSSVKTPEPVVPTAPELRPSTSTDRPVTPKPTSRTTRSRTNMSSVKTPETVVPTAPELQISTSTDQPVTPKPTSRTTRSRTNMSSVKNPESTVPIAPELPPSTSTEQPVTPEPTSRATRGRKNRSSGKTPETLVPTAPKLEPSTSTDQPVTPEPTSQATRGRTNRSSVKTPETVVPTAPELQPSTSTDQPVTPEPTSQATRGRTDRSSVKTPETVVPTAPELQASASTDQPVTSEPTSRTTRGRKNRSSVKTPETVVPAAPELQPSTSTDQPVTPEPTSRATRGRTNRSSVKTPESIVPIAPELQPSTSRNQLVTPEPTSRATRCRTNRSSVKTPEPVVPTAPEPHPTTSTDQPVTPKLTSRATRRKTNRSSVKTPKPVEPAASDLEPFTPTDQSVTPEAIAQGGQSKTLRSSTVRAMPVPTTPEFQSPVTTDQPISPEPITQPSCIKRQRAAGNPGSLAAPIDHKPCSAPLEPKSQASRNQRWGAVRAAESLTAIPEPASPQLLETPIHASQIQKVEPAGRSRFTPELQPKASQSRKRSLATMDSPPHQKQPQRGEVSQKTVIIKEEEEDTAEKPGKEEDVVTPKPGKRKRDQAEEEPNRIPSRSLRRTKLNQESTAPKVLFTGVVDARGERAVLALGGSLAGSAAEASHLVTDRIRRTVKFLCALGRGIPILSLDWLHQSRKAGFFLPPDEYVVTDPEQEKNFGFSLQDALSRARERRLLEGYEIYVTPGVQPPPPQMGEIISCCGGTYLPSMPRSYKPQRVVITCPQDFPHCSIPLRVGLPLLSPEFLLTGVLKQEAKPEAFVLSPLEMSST

mdc1_human MDC1, Q14676 [1] = variants of: B1
mdc1_human MDC1, Q14676 [2] = variants of: B1; remark: listed apart in the source
mdc1_human MDC1, Q14676 [3] = variants of: B1; remark: listed apart in the source

Row | Variant | effect of a mutation on the interaction (mdc1_human MDC1, Q14676 [1]) | effect of a mutation on the interaction (mdc1_human MDC1, Q14676 [2]) | effect of a mutation on the interaction (mdc1_human MDC1, Q14676 [3])
1 | K160M | decreasing interaction | disrupting interaction | 
2 | R28A |  | disrupting interaction | decreasing interaction

From IntAct's records for PubMed 20224574
